± gives the half width of the 95% confidence interval.
Legend:
[1] = folding stability dG unfold from trypsin proteolysis; higher = more stable
Procedure, shortened: (§1)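 Only designs with AlphaFold2 dimer inter-PAE above 15 were retained; each was a mini-protein under 80 residues with no cysteine, in a PA-tagged cDNA display construct. After digestion with trypsin and chymotrypsin and sequencing, K50 was inferred by Bayesian fitting of counts, and unfolding free energy was derived per protease or combined against a sequence-predicted unfolded-state K50 and a shared folded-state K50.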

[2] = folding stability dG unfold from chymotrypsin proteolysis; higher = more stable
Procedure, shortened: as §1

[3] = folding stability dG unfold (combined trypsin and chymotrypsin); higher = more stable
Procedure, shortened: as §1

Row | Sequence | folding stability dG unfold [1] | folding stability dG unfold [2] | folding stability dG unfold [3]
1 | SAGGSAGGSAGGMYRIKVTTKDGRERVIEVKPGEEITLEELRKAGLSEEEIERVEIEEVSAGGSAGGSAGGS [r10_565_TrROS_Hall] | 1.89 ± 0.076 kcal/mol | 1.85 ± 0.051 kcal/mol | 1.84 ± 0.092 kcal/mol
2 | SAGGSAGGSAGPKIPKNYKIVATYTVPPTNKKKLILYDPKTNKPLIFDTVSGKIYPFGKKSAGGSAGGSAGG [r11_268_TrMRF] | 1.59 ± 0.027 kcal/mol | 2 ± 0.11 kcal/mol | 1.84 ± 0.097 kcal/mol
3 | SAGGSAGGSMTTTVERSPSGKTTVTETETRKDAAGNEYTLVTTTTFDPNTTTSTTTTTVVPVSSAGGSAGGS [r12_57_JUSTAS] | 1.07 ± 0.062 kcal/mol | 1.64 ± 0.048 kcal/mol | 1.51 ± 0.086 kcal/mol
4 | SMKPGQTVTFNVMIRMKDPNMTAQEFAEEAADEIAENFPPGVKIEIKVDDIEPDPPNGEVYFMVKITITVSA [r9_706_TrROS] | 2.54 ± 0.17 kcal/mol | 4 ± 0.13 kcal/mol | 3.35 ± 0.23 kcal/mol
5 | SAGGSAGGIHPDVKVKLVKIVSVEEGEGEVVAKALVELPNGERVVVSSEVLKELLEENPDVDVSSAGGSAGG [r6_77_TrMRF] | 0.301 ± 0.056 kcal/mol | 1.02 ± 0.067 kcal/mol | 0.819 ± 0.18 kcal/mol
6 | SAGGSAGGLRVVKPEKVVEAIRKIRELVPKNYLVIVDSIEVREEGGKLYVDIPVLVLPVPPELLSAGGSAGG [r6_819_TrMRF] | 1.54 ± 0.027 kcal/mol | 1.79 ± 0.072 kcal/mol | 1.65 ± 0.16 kcal/mol
7 | SAGGMNVSYLFSKSVPKEEIEAYLKKLDPNKKYKFEELEPEEIEKLPESIEVIEKPVDETLRLVLVEESAGG [r13_649_JUSTAS] | -0.323 ± 0.092 kcal/mol | 0.765 ± 0.11 kcal/mol | 0.473 ± 0.12 kcal/mol
8 | SAGGMKIVSIEYDKENKKITIKVEAPPGVSAEELAKKIKELAKELFGKEIEIEVKVEKVEFFEPEEESAGGS [r8_314_TrROS_Hall] | 3.61 ± 0.16 kcal/mol | 3.12 ± 0.13 kcal/mol | 3.33 ± 0.12 kcal/mol
9 | SAGGMKKYKVTVTIELTPPDGTTTTVTVTIDVDGDEKKALEEAEKVAEELKAAGYPVTIKEIKIYEESAGGS [r16_525_JUSTAS] | 3.8 ± 0.37 kcal/mol | 4.51 ± 0.3 kcal/mol | 4.69 ± 0.78 kcal/mol
10 | SAGPLTVTVEGDTLTVTVPLTDVPADATVRVTVTVGDKTEEYTVPPSESITVTVPSSAVEVTVERLPPASAG [r5_867_JUSTAS] | 2.09 ± 0.085 kcal/mol | 2.44 ± 0.082 kcal/mol | 2.36 ± 0.12 kcal/mol
11 | SAGGKLPKLPPGQIEIMDFQIEPDPDGRYKMSFMITITAPDNGKKVVVMLEMWMPPDGEMKTGIGIMPSAGG [r13_263_TrROS] | 1.9 ± 0.14 kcal/mol | 2.85 ± 0.15 kcal/mol | 2.65 ± 0.34 kcal/mol
12 | SAGGMPGVRPVVTVTVLVKFPGPDETKTVTITMRPEELAAGVTPEAAARRVAEALGHDIEILEIERKSAGGS [r16_554_JUSTAS] | 1.4 ± 0.04 kcal/mol | 1.86 ± 0.031 kcal/mol | 1.61 ± 0.088 kcal/mol
13 | SAGGVVEVEVPDLSLEEALERVREEYPDVPEFTLTLPSGERVEFRVEGDRVEVVRREPLGPRPPELESAGGS [r8_225_JUSTAS] | 1.63 ± 0.1 kcal/mol | 1.51 ± 0.029 kcal/mol | 1.54 ± 0.066 kcal/mol
14 | SAGGSAGGSNWVEIDIPHDDGRDIKITMWPDGYMQIEYPNGKPVYEIPVPPNMSIDEIAERILSAGGSAGGS [r12_990_TrROS] | 0.641 ± 0.045 kcal/mol | 0.498 ± 0.067 kcal/mol | 0.624 ± 0.15 kcal/mol
15 | SAGGSAGGSAGGMKVIKIEDVEKVKAEAKKNGIKVTYKKENDGEIIAYIEKIPKSIKNKSAGGSAGGSAGGS [r10_218_JUSTAS] | -0.832 ± 0.34 kcal/mol | 0.449 ± 0.14 kcal/mol | -0.00327 ± 0.23 kcal/mol
16 | SAGGSAGGSAGGKPKTVKIIRDKKTNRLLIERDGKVYEFDVDNVEVREVTLEDLKEEELSAGGSAGGSAGGS [r10_512_TrROS_Hall] | 0.576 ± 0.14 kcal/mol | 1.2 ± 0.045 kcal/mol | 0.88 ± 0.14 kcal/mol
17 | SAGGSAGGSGMKRTATVVERDPATGRVLLEITDGSKTTTRVLEGPPSGRGAASSPEIDSLSLLSAGGSAGGS [r12_421_JUSTAS] | -1.16 ± 0.29 kcal/mol | -0.169 ± 0.12 kcal/mol | -0.423 ± 0.098 kcal/mol
18 | SAGGSAGGSAMTLEEKALESEELKKKIEEAPPSTKLITFELPGGEKITFTKNPDGSVVLSPSAGGSAGGSAG [r3_124_JUSTAS] | 0.941 ± 0.051 kcal/mol | 1.41 ± 0.1 kcal/mol | 1.2 ± 0.11 kcal/mol
19 | SAGSNKKITAEELAKLLEEKFKEKFPDAEIKVHAHAEPRPDDKLIIHVHFEIYRKKPKIGEFDVVIEFESAG [r5_696_TrMRF] | 1.55 ± 0.085 kcal/mol | 2.76 ± 0.043 kcal/mol | 2.38 ± 0.13 kcal/mol
20 | SAGGSAGGSAGKIEIDPSKPALVRVRLVPENGIPREIVVEAGDLSKLLPENFKVLSIELGSAGGSAGGSAGG [r17_449_TrMRF] | 0.295 ± 0.09 kcal/mol | 0.397 ± 0.06 kcal/mol | 0.407 ± 0.067 kcal/mol
21 | SADLAKNIAKKLNPDIKDVQIKDIELQPNPDNGYPVIKVELEVKMNDGPYKKSIWFMPNGFQIKIQPVPSAG [r14_397_TrROS] | 0.783 ± 0.17 kcal/mol | 1.77 ± 0.21 kcal/mol | 1.44 ± 0.29 kcal/mol

Row | Sequence | folding stability dG unfold [1] | folding stability dG unfold [2] | folding stability dG unfold [3]
22 | SAGGSAGGSAKPVLEVEITVEVNGKLYKVRARVELEETPDGLVLKVEVELENGEKFEFTLKLSAGGSAGGSA [r18_54_TrROS_Hall] | 4.42 ± 0.26 kcal/mol | 5.13 ± 0.21 kcal/mol | 5.11 ± 0.28 kcal/mol
23 | SAGGSAGGSGSLEKVFTGENKIITIKYLPDGKVIITLHDPSTPKPIAVIEAKPSEIEEILKKESAGGSAGGS [r20_129_TrMRF] | 1.24 ± 0.12 kcal/mol | 1.86 ± 0.076 kcal/mol | 1.76 ± 0.13 kcal/mol
24 | SAKILEIKPLPDGTVIIKIPVDAPEDVDPKEVKILVKSEEGVKEAEILEDGTIDIVVENVKDVKIEIFVESA [r9_722_TrMRF] | 0.305 ± 0.061 kcal/mol | 0.382 ± 0.074 kcal/mol | 0.359 ± 0.1 kcal/mol
25 | SAGGSAGGSAGGSVSVNIPLEELKERVPPSLSVSVSPTPVPEGGGVRVPVTLTSPAELGSAGGSAGGSAGGS [r4_119_JUSTAS] | 1 ± 0.031 kcal/mol | 0.471 ± 0.025 kcal/mol | 0.763 ± 0.041 kcal/mol
26 | SAGGMVLVIVSDLKPGELNEIIEKLKKEGLEVKLFLPNGEEIDADPNIEDLPEDVPVVLLVRHPDKSSAGGS [r16_31_TrMRF] | 1.87 ± 0.079 kcal/mol | 2.494 ± 0.017 kcal/mol | 2.35 ± 0.053 kcal/mol
27 | SAGGSAGGSAGGSPPNMEPVETQEYQIGNDFIIKVDTYRMPDPDMYFVDIEITPDALKASAGGSAGGSAGGS [r4_163_TrROS] | 0.82 ± 0.12 kcal/mol | 1.82 ± 0.17 kcal/mol | 1.28 ± 0.3 kcal/mol
28 | SAPKLEIEEVHVNPNDGMVMITFQIDNLPPGLKITIKPKNGKPRRWTGEPGKPIMFMIPPGVDDIEIEWSAG [r14_671_TrROS] | 1.64 ± 0.048 kcal/mol | 2.06 ± 0.11 kcal/mol | 1.94 ± 0.15 kcal/mol
29 | SAGGSAGKPRPIDIWIPLPPGAEEVKIEQLDIFIPDGWRIRIEEIEIDPEDPGYIRVTVKIQPLDDSAGGSA [r15_852_TrROS] | 2.33 ± 0.1 kcal/mol | 2.78 ± 0.045 kcal/mol | 2.56 ± 0.16 kcal/mol
30 | SAPLTPEEAEEWAETLADELADKAGIPNVEIKVEPSPDGYWTAEIRFPNNGKKIRITWENGRPKITEIESAG [r14_925_TrROS] | 2.84 ± 0.2 kcal/mol | 2.63 ± 0.093 kcal/mol | 2.74 ± 0.16 kcal/mol
31 | SAGGSAMTPEEIRNMSLEEILKLIKEKLEKGEKVEIEITLPDGRKLRITFERLPNGEIKITIEEVDSAGGSA [r15_857_TrROS_Hall] | 3.53 ± 0.2 kcal/mol | 5.04 ± 0.32 kcal/mol | 4.72 ± 0.28 kcal/mol
32 | SAGGSAKKYIVLAKIKEVKVTKTYKTKNGKKVKVTVKVEIKVEPVKVFKIKKDKNGNWKIEPGEVLSAGGSA [r15_162_TrROS_Hall] | 2.96 ± 0.15 kcal/mol | 2.88 ± 0.14 kcal/mol | 3.14 ± 0.28 kcal/mol
33 | SAGGSAGGSKFEITEVSVELVEVDGKLYLKVSMTIKNEDGSTYKISLVYDLENNELYLSIEKVSAGGSAGGS [r12_1035_TrROS_Hall] | 4.12 ± 0.43 kcal/mol | 5.7 ± 0.16 kcal/mol | 5.87 ± 0.37 kcal/mol
34 | SMKKTIIIKVKKEDMTPEEIAKKLAELGYEVEIVDVEYDEETEEVYITVEIYDENGELIEKIEIKLPRKDSA [r9_879_TrROS_Hall] | 0.825 ± 0.16 kcal/mol | 0.956 ± 0.17 kcal/mol | 0.916 ± 0.42 kcal/mol
35 | SAGMGSDVPVLTAVLSVLNPETGEEVTIEVPGRNDYGEGKLIRPVSPEDLLAAALAVADALLKDPSLKASAG [r5_426_TrMRF] | 1.36 ± 0.036 kcal/mol | 0.24 ± 0.22 kcal/mol | 0.804 ± 0.11 kcal/mol
36 | SAGGGMMTLVTLEITIPKPPDPKTGKSRPLPLTLEFEVEADDPEALEERVEEELEKIGIPEEARKLLSAGGS [r16_40_JUSTAS] | 0.471 ± 0.092 kcal/mol | 0.547 ± 0.16 kcal/mol | 0.698 ± 0.2 kcal/mol
37 | SAGGSPPLPLKITKITDTRYERNPDGQGWVKIEIRLPENGKPITIPVQADSPEQAEYAVKEALKKFSAGGSA [r2_248_TrROS] | -0.315 ± 0.16 kcal/mol | -0.424 ± 0.56 kcal/mol | -0.31 ± 0.36 kcal/mol
38 | SAGGSAGGSAMIVVPVDLVRERLDELVFRGEDGVEYRAEVRVFEVGDRPVAVIDLRPLDEDGSAGGSAGGSA [r18_447_TrMRF] | 0.467 ± 0.025 kcal/mol | 0.994 ± 0.047 kcal/mol | 0.823 ± 0.048 kcal/mol
39 | SPVVVTTSPGPDGGARVTIYFPKTGKPIEFDITDPDLVEESTSDPNTRVDIPEEVLRSLAPDLFTGFTTESA [r9_390_TrMRF] | 0.497 ± 0.046 kcal/mol | 0.241 ± 0.1 kcal/mol | 0.362 ± 0.065 kcal/mol
40 | SAGGSAGGSAMKIVKIEVVENEDGEKYVKIEIELENGEKIEITLPLEELENMSLEELLKLLKSAGGSAGGSA [r18_129_TrROS_Hall] | 2.94 ± 0.18 kcal/mol | 3.94 ± 0.17 kcal/mol | 3.68 ± 0.12 kcal/mol
41 | SGLPEELARKLGLSAMTPLPDGTLVMALPDGTRVVVRIETTEVRLSPLGEPAVEVEVEVERLPAPAPEAASA [r9_648_JUSTAS] | 1.5 ± 0.027 kcal/mol | 1.67 ± 0.018 kcal/mol | 1.6 ± 0.048 kcal/mol
42 | SAGGSAGGSAGGLEIVKEVIKNPLKNEPVEVLILIEKKEEPIEKTDLFEIPVKITIIPLSAGGSAGGSAGGS [r10_459_JUSTAS] | 1.29 ± 0.11 kcal/mol | 0.152 ± 0.16 kcal/mol | 0.812 ± 0.19 kcal/mol

— the supplement of paper PMC12764529
